10 molecules from patent publication US20150266977A1 (AbbVie / Abbott, published 2015) can be followed below.

Usually Kd stands for the concentration at which binding is half-saturated. In general, koff refers to a measure of how fast the partners let go of each other. By kon is commonly meant the rate constant with which the complex forms. Broadly, the EC50 is the concentration at which the effect is half-maximal.

Residue numbers refer to the chain shown, from its start. Some results are limits rather than exact numbers.

For test [1], the target named is T1, recombinant human sclerostin (human, UniProt Q9BQB4 24-213).
T1 construct: biotinylated in the ELISAs; also called hu sclerostin; hu scl
T1 sequence: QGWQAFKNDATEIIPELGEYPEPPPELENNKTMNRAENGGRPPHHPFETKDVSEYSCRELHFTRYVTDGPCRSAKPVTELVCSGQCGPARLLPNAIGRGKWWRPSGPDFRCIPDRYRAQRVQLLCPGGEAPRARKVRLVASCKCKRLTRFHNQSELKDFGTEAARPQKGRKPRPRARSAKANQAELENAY
Briefly: direct bind ELISA. Background: An ELISA detects its analyte on a solid surface through an enzyme-linked reagent.

For a further test, the target named is Rhesus/cynoTNFa (Rhesus/cyno). Briefly: cell-based or functional assay.
Chain of Rhesus/cynoTNFa (Rhesus/cyno) (P48094 whole entry): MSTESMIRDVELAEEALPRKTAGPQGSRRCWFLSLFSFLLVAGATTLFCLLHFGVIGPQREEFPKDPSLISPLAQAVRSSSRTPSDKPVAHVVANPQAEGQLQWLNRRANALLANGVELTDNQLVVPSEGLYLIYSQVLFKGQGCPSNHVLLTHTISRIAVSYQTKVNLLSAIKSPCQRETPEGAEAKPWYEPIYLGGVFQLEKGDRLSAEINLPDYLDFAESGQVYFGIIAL
For test [2], the target named is T2, recombinant human TNF-α (human, UniProt P01375 77-233). Briefly: cell-based or functional assay.
T2 sequence (P01375 77-233 limits assumed): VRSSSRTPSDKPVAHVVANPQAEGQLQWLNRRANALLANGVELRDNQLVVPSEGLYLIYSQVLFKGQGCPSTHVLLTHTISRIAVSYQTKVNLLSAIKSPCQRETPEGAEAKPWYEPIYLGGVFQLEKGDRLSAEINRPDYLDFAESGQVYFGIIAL
Test [3] deals with T1, recombinant human sclerostin. Briefly: SPR. How it is done: (§1) The binding of antibodies or anti-sclerostin-TNF DVD to purified recombinant human, cynomolgus monkey (cyno), rat and mouse sclerostin and TNFα was determined by surface plasmon resonance-based measurements with a Biacore T100 or T200 instruments (GE Healthcare Life Sciences, Piscataway, N.J., USA) using running HBS-EP+ (10 mM HEPES [pH 7.4], 150 mM NaCl, 3 mM EDTA, and 0.005% surfactant P20) containing additional 150 mM NaCl, and/or 10 mg/ml carboxymethyl dextran, 0.1 mg/ml BSA at 25° C. All chemicals were obtained from GE Healthcare Life Sciences, Piscataway, N.J., USA or otherwise from a different source as described in the text. Approximately 10,000 RU (or 3000 RU when CM3 chip was used) of goat anti-mouse or anti-human IgG (Fcγ) fragment specific polyclonal antibody (Pierce Biotechnology Inc, Rockford, Ill.) diluted in 10 mM sodium acetate (pH 4.5) was directly immobilized across a CM5 (or CM3) research grade biosensor chip using a standard amine coupling kit according to manufacturer's instructions and procedures at 15 μg/ml. Unreacted moieties on the biosensor surface were blocked with ethanolamine. Modified carboxymethyl dextran surface in flowcells 2, 3 and 4 were used as a reaction surface. Modified carboxymethyl dextran in flow cell 1 was used as the reference surface. Biaevaluation T100 software version 2.0.2, GE Healthcare Life Sciences was used to simultaneously fit association and dissociation phases of all injections (using 1:1 fit analysis with local Rmax). Purified antibodies were diluted in running buffer for capture across goat anti-mouse or anti-human IgG specific reaction surfaces. Antibodies to be captured as a ligand (1 μg/ml) were injected over reaction matrices at a flow rate of 10 μl/minute. The association and dissociation rate constants, kon (unit M-1 s-1) and koff (unit s-1) were determined under a continuous flow rate of 50 μl/minute. […] At the end of each cycle the surfaces were regenerated with 10 s injection of 50 mM NaOH or/and by 10 s injection of 10 mM Glycine pH1.5 at a flow rate of 100 μl/min.
In general terms: Surface plasmon resonance follows binding to a sensor surface in real time, without labels.

Test [4] deals with T2, recombinant human TNF-α. Briefly: SPR. How it is done: as §1
Test [5] has as its target T2, recombinant human TNF-α. Nature of the test: cell-based or functional assay. The source holds these as a separate data set.
The target of test [6] is T3, recombinant cynomolgus monkey sclerostin (cynomolgus monkey).
T3 construct: also called cyno sclerostin; Cyno sclerostin
Nature of the test: SPR. How it is done:
as §1

Test [7] concerns the target T1, recombinant human sclerostin. Nature of the test: capture ELISA, biotin-sclerostin.

B1: MSK13 (antibody, V domains shown)
VH: EMQLVQSGAEVKKPGASVKVSCKASGYTFSGYYMNWVRQAPGQGLEWMGWINPYSGAATYAQDFQGRITVTRDTSISTGYMELTRLTSTDTAVYYCARGGTITGASWYFDVWGRGTLVTVSS
VL: DIVMTQTPLSLPVTLGQPASISCRSSQSLVHSDGNTYLNWFQQRPGQSPRRLIYKVSNRDSGVPDRFSGSGSGTDFTLKISRVEAEDVGVYYCMQGTHWPQLTFGGGTKVEIKR
notes: fully human mAb
In the case of B1, the binding result in test [1] is “binds”.

B2: MAK199-1-SS-AE10-6 AM7 (bispecific antibody, human IgG1, lambda, L234A L235A)
heavy: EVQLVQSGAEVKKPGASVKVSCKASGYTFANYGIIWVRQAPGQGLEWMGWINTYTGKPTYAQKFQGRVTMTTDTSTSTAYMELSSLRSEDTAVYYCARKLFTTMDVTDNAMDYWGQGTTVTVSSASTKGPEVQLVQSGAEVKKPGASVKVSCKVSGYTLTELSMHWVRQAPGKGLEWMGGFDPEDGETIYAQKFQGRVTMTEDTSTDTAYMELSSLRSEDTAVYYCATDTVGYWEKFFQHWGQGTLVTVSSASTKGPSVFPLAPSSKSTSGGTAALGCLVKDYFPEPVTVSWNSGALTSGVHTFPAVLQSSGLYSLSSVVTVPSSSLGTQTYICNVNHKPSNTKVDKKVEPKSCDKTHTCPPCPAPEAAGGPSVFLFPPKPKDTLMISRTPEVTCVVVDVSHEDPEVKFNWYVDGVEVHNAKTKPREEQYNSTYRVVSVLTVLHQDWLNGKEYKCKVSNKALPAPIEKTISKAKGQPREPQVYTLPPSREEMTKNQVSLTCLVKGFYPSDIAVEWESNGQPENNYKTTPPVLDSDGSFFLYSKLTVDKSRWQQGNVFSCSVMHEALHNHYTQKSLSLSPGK
light: DIQMTQSPSSLSASVGDRVTITCRASQDISQYLNWYQQKPGKAPKLLIYYTSRLQSGVPSRFSGSGSGTDFTLTISSLQPEDFATYFCQQGNTWPPTFGQGTKLEIKRTVAAPQAVVTQEPSLTVSPGGTVTLTCGSSTGTVTIDHYPYWFQQKPGQAPRTLISDTDDKHSWTPARFSGSLLGGKAALTLSGAQPEDEAEYYCLLDYGGRFVFGGGTKLTVLGQPKAAPSVTLFPPSSEELQANKATLVCLISDFYPGAVTVAWKADSSPVKAGVETTTPSKQSNNKYAASSYLSLTPEQWKSHRSYSCQVTHEGSTVEKTVAPTECS
notes: DVD-Ig: outer MAK199-1, inner AE10-6 AM7
Take B2: the “L929 TNF neutralization IC50” value with Rhesus/cynoTNFa turned out to be 0.0569 nM. For the same molecule, in the test with recombinant human TNF-α [2], the “L929 TNF neutralization IC50” value stood at 0.0581 nM. Besides, in test [3], the Kd stood at 0.052 nM, the koff worked out at 8.3e-06 s⁻¹ and the kon was 160000 M⁻¹ s⁻¹. In the test with recombinant human TNF-α [4], the Kd is 0.017 nM, the koff worked out at 4.4e-05 s⁻¹ and the kon turned out to be 2.6e+06 M⁻¹ s⁻¹.

B3: MAK199-1-GS-AE10-6 AM7 (bispecific antibody, human IgG1, lambda, L234A L235A)
heavy: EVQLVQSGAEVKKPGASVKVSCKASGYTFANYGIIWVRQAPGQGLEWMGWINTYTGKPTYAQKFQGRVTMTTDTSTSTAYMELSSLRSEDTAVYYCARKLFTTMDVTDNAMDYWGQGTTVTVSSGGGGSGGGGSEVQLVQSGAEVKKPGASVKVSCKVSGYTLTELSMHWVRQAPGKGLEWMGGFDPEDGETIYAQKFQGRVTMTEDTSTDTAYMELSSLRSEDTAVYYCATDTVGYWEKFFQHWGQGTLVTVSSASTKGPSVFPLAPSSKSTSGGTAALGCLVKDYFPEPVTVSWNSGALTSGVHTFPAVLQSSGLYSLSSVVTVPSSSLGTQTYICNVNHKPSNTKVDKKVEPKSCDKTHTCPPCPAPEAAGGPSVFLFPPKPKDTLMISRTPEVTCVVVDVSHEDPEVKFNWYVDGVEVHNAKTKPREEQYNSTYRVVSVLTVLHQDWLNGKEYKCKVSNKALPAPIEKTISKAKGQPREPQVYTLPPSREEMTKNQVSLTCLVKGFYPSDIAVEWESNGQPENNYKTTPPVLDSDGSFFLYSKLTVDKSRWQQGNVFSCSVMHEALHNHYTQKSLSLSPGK
light: DIQMTQSPSSLSASVGDRVTITCRASQDISQYLNWYQQKPGKAPKLLIYYTSRLQSGVPSRFSGSGSGTDFTLTISSLQPEDFATYFCQQGNTWPPTFGQGTKLEIKRGGSGGGGSGQAVVTQEPSLTVSPGGTVTLTCGSSTGTVTIDHYPYWFQQKPGQAPRTLISDTDDKHSWTPARFSGSLLGGKAALTLSGAQPEDEAEYYCLLDYGGRFVFGGGTKLTVLGQPKAAPSVTLFPPSSEELQANKATLVCLISDFYPGAVTVAWKADSSPVKAGVETTTPSKQSNNKYAASSYLSLTPEQWKSHRSYSCQVTHEGSTVEKTVAPTECS
notes: DVD-Ig: outer MAK199-1, inner AE10-6 AM7; also called MAK199-1-GS-AM10-6 AM7; MAK199-1GSAM10-6 AM7
In the case of B3, in the test with Rhesus/cynoTNFa, the “L929 TNF neutralization IC50” value was found to be 0.042 nM. The “L929 TNF neutralization IC50” value with recombinant human TNF-α [2] is 0.0677 nM. Moreover, in the test with recombinant human TNF-α [5], the “L929 TNF neutralization IC50 with 50 nM SOST” value was 0.036 nM and the “L929 TNF neutralization IC50 without 50 nM SOST” value was 0.025 nM. In test [3], the Kd turned out to be 0.00039 nM, the koff was 2.3e-06 s⁻¹ and the kon was 5.9e+06 M⁻¹ s⁻¹. Also, in test [6], the Kd is below 0.00011 nM, the koff is below 1e-06 s⁻¹ and the kon amounted to 9.3e+06 M⁻¹ s⁻¹. Besides, in the test with recombinant human TNF-α [4], the Kd worked out at 0.027 nM, the dissociation rate constant (koff) came out at 5.8e-05 s⁻¹ and the kon was 2.1e+06 M⁻¹ s⁻¹.

B4: MAK199-1-GS-AE10-6 AM7 QL (bispecific antibody, human IgG1, lambda, L234A L235A)
heavy: EVQLVQSGAEVKKPGASVKVSCKASGYTFANYGIIWVRQAPGQGLEWMGWINTYTGKPTYAQKFQGRVTMTTDTSTSTAYMELSSLRSEDTAVYYCARKLFTTMDVTDNAMDYWGQGTTVTVSSGGGGSGGGGSEVQLVQSGAEVKKPGASVKVSCKVSGYTLTELSMHWVRQAPGKGLEWMGGFDPEDGETIYAQKFQGRVTMTEDTSTDTAYMELSSLRSEDTAVYYCATDTVGYWEKFFQHWGQGTLVTVSSASTKGPSVFPLAPSSKSTSGGTAALGCLVKDYFPEPVTVSWNSGALTSGVHTFPAVLQSSGLYSLSSVVTVPSSSLGTQTYICNVNHKPSNTKVDKKVEPKSCDKTHTCPPCPAPEAAGGPSVFLFPPKPKDQLMISRTPEVTCVVVDVSHEDPEVKFNWYVDGVEVHNAKTKPREEQYNSTYRVVSVLTVLHQDWLNGKEYKCKVSNKALPAPIEKTISKAKGQPREPQVYTLPPSREEMTKNQVSLTCLVKGFYPSDIAVEWESNGQPENNYKTTPPVLDSDGSFFLYSKLTVDKSRWQQGNVFSCSVLHEALHNHYTQKSLSLSPGK
light: B3 light
notes: DVD-Ig with CH QL
As to B4, in the test with recombinant human TNF-α [5], the “L929 TNF neutralization IC50 with 50 nM SOST” value worked out at 0.032 nM and the “L929 TNF neutralization IC50 without 50 nM SOST” value was 0.033 nM. For the same molecule, in test [3], the Kd was below 0.00016 nM, the koff is below 1e-06 s⁻¹ and the kon is 6.1e+06 M⁻¹ s⁻¹. Besides, in test [6], the Kd is below 0.0001 nM, the koff was below 1e-06 s⁻¹ and the kon was determined as 9.9e+06 M⁻¹ s⁻¹. In the test with recombinant human TNF-α [4], the Kd stood at 0.007 nM, the koff was 3e-05 s⁻¹ and the kon came out at 4.2e+06 M⁻¹ s⁻¹.

B5: MSK21 (antibody, V domains shown)
VH: EVQLQQSGPGLVKPSQTLSLTCAISGDSVSSNIVAWNWIRQSPSRGLEWLGRTYYTSKWFNQYAMSVKSRITINPDTSKNQVSLKLSSVTAADTAAYYCARVGGTYDFWSGYYRPYYYGMDVWGQGTMVTVSS
VL: DIRLTQSPSSLSASIGDTVTISCRSSQPINTHLNWFRQLPGRAPELLIYGSSSLHTGVPSRFSGSGSGTDFTLTITSLQRGDFLTYYCQQTHRLPITFGQGTRLDIKR
notes: fully human mAb
With B5, the binding result in test [1] was “binds”.

B6: MSL17 (antibody, V domains shown)
VH: EVQLLESGGGLVKPGRSLRLSCVAYGFSLTGYSMNWVRQAPGKGLEWVSSISPNDTYRHYADSVKGRFTISRDNAKNSLYLQMNSLRAEDTAVYYCARDTNYRDSGGYFYDVFDIWGQGTMVTVSS
VL: SYELTQPPSVSVAPGETARVTCEGNNIGNKGVHWYQQKPGQAPVLVVYDDSDRPSGIPERFSGSNSGNTATLTISRVEAGDDADYYCQVWDSSSDVFGSGTKVTVLG
notes: fully human mAb
With B6, the EC50 in test [7] was determined as 0.778 nM.

B7: AE10-6 AM7-GS-MAK195-21 (bispecific antibody, human IgG1, kappa, L234A L235A)
heavy: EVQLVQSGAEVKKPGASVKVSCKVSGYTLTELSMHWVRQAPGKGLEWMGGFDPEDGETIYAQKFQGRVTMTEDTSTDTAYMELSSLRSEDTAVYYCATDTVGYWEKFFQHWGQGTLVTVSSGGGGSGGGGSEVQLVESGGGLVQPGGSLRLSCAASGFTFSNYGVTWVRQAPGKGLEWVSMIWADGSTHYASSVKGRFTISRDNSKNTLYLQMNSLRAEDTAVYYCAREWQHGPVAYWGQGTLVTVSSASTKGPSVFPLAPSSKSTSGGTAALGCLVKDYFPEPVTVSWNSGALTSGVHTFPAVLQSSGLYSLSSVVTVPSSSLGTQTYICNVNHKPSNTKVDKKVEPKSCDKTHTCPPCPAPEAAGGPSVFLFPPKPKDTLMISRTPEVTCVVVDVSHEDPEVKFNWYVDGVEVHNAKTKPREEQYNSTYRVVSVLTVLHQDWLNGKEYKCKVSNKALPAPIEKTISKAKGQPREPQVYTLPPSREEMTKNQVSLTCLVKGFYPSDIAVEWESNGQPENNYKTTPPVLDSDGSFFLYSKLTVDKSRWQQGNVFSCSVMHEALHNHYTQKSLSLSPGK
light: QAVVTQEPSLTVSPGGTVTLTCGSSTGTVTIDHYPYWFQQKPGQAPRTLISDTDDKHSWTPARFSGSLLGGKAALTLSGAQPEDEAEYYCLLDYGGRFVFGGGTKLTVLGGGSGGGGSGDIQMTQSPSSLSASVGDRVTITCRASQLVSSAVAWYQQKPGKAPKLLIYWASARHTGVPSRFSGSGSGTDFTLTISSLQPEDFATYYCQQHYKTPFTFGQGTKLEIKRTVAAPSVFIFPPSDEQLKSGTASVVCLLNNFYPREAKVQWKVDNALQSGNSQESVTEQDSKDSTYSLSSTLTLSKADYEKHKVYACEVTHQGLSSPVTKSFNRGEC
notes: DVD-Ig: outer AE10-6 AM7, inner MAK195-21
For B7, in the test with Rhesus/cynoTNFa, the “L929 TNF neutralization IC50” value was above 2 nM. In test [3], the Kd was below 0.00015 nM, the koff was below 1e-06 s⁻¹ and the kon is 6.8e+06 M⁻¹ s⁻¹.

B8: MSL10 (antibody, V domains shown)
VH: EVQLVESGGGLVQPGGSLRLSCTASGFTFDDYALHWVRQAPGKGLEWVSGISWHGDFIDYADSVKGRFTISRDNSKNTLYLQMNGLRVEDMAIYYCAGNNRGYGGLDVWGQGTTVTVSS
VL: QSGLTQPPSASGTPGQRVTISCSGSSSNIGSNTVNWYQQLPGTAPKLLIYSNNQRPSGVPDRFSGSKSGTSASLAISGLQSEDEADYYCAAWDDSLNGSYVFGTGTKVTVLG
notes: fully human mAb
B8: the EC50 in test [7] is 0.427 nM.

B9: MSL9-8 (antibody, V domains shown)
VH: EVQLVESGGGLVQPGGSLRLSCAASGFRFTDYWMTWVRQAPGKGPEWVANINEDGSKKHYADSVKDRFIISRDNAKKSLSLQMKRMRAEDTAVYYCAADLNPHWLVGWGQGTLVTVSS
VL: QPVLTQPPSVSVAPGKTARITCGGNNIGSRRVHWYQQKPGQAPVLVVYDDNDRPSGIPERFSGSKSGNTATLTISRVEAGDEADYYCQVWHSGRVFGTGTKVTVLG
notes: fully human mAb
On to B9, for which the EC50 in test [7] turned out to be 12.3 nM.

B10: MSK9 (antibody, V domains shown)
VH: B9 VH with V5L, R28T, T30R, D31S, T35S, P45L, N50S, N52K, E53Q
VL: DIVMTQTPLSLPVTPGEPASISCRSSQSLLHSNGYNYLDWYLQKPGQSPQLLIYLGSKRASGVPDRFSGSGSGTDFTLKISRVGAEDVGVYYCMQGLQTPKAFGPGTKVDIKR
notes: fully human mAb
B10: the binding result in test [1] is given as “binds”.
